Assay results reported in US20180362766A1, “Fluorogenic pH-Sensitive Dyes and Their Methods of Use” (Life Technologies Corporation, priority 2012, published 2018).

Test system: A 431 cells
Assay: Live cell internalization (endocytosis) of dye-labeled EGF, fluorescence imaging
Type: cell-based
Description: A 431 cells were grown in complete medium on 35 mm poly-D-lysine coated glass bottom culture dishes from MatTek. On the day of the assay, cells were rinsed once with LCIS +1% BSA (Live Cell imaging solution, Cat# A14291DJ) and placed at 37° C. Control dishes received LCIS; EGF pretreatment dishes received 10 μg/mL unlabeled EGF in LCIS. Cells were incubated at 37° C. for 30 minutes. Cells were then cooled to 4° C. on ice for 10 minutes. Compound (24)-labeled EGF was added to the dishes 1:10 at 5 μg/mL from a 50 μg/mL stock in LCIS. These dishes were incubated on ice for 30 minutes, then washed 2× with cold LCIS and allowed to warm to 37° C. for 60 minutes before imaging with standard TRITC and FITC filter sets on a DeltaVision Core microscope. […] All images were matched for gain and exposure times.

B1: Compound (24)-labeled EGF: epithelial growth factor (EGF) conjugated to Compound (24) STP ester, degree of substitution 1 (conjugate, UniProt P01133 23-1207, looked up)
Pro-epidermal growth factor: PQHWSCPEGTLAGNGNSTCVGPAPFLIFSHGNSIFRIDTEGTNYEQLVVDAGVSVIMDFHYNEKRIYWVDLERQLLQRVFLNGSRQERVCNIEKNVSGMAINWINEEVIWSNQQEGIITVTDMKGNNSHILLSALKYPANVAVDPVERFIFWSSEVAGSLYRADLDGVGVKALLETSEKITAVSLDVLDKRLFWIQYNREGSNSLICSCDYDGGSVHISKHPTQHNLFAMSLFGDRIFYSTWKMKTIWIANKHTGKDMVRINLHSSFVPLGELKVVHPLAQPKAEDDTWEPEQKLCKLRKGNCSSTVCGQDLQSHLCMCAEGYALSRDRKYCEDVNECAFWNHGCTLGCKNTPGSYYCTCPVGFVLLPDGKRCHQLVSCPRNVSECSHDCVLTSEGPLCFCPEGSVLERDGKTCSGCSSPDNGGCSQLCVPLSPVSWECDCFPGYDLQLDEKSCAASGPQPFLLFANSQDIRHMHFDGTDYGTLLSQQMGMVYALDHDPVENKIYFAHTALKWIERANMDGSQRERLIEEGVDVPEGLAVDWIGRRFYWTDRGKSLIGRSDLNGKRSKIITKENISQPRGIAVHPMAKRLFWTDTGINPRIESSSLQGLGRLVIASSDLIWPSGITIDFLTDKLYWCDAKQSVIEMANLDGSKRRRLTQNDVGHPFAVAVFEDYVWFSDWAMPSVMRVNKRTGKDRVRLQGSMLKPSSLVVVHPLAKPGADPCLYQNGGCEHICKKRLGTAWCSCREGFMKASDGKTCLALDGHQLLAGGEVDLKNQVTPLDILSKTRVSEDNITESQHMLVAEIMVSDQDDCAPVGCSMYARCISEGEDATCQCLKGFAGDGKLCSDIDECEMGVPVCPPASSKCINTEGGYVCRCSEGYQGDGIHCLDIDECQLGEHSCGENASCTNTEGGYTCMCAGRLSEPGLICPDSTPPPHLREDDHHYSVRNSDSECPLSHDGYCLHDGVCMYIEALDKYACNCVVGYIGERCQYRDLKWWELRHAGHGQQQKVIVVAVCVVVLVMLLLLSLWGAHYYRTQKLLSKNPKNPYEESSRDVRSRRPADTEDGMSSCPQPWFVVIKEHQDLKNGGQPVAGEDGQAADGSMQPTSWRQEPQLCGMGTEQGCWIPVSSDKGSCPQVMERSFHMPSYGTQTLEGGVEKPHSLLSANPLWQQRALDPPHQMELTQ
modifications: Pro-epidermal growth factor Compound (24) dye conjugate
- fluorescent signal from dye-labeled EGF internalization (cells pretreated with 10 μg/mL unlabeled EGF): no signal
- fluorescent signal from dye-labeled EGF internalization (untreated (control) plates, 5 μg/mL labeled EGF, 60 minutes at 37° C.): Specific signal
